Experiment: label from the status in PepcDB records
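Also: failed if final PepcDB status was selected cloned or expressed and not failed if soluble or beyond.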

Sequence	protein production
MQDRCPHQDHRSIPTIMPDLEPDTVSALEAPEFAPAQFVRWFREVAPYVHAFRGKTFVVAFGGELVQAGALNVLVQDLSLLSALGIHLVLVHGSRPQVNEQLRLKGYTQQFGRGLAPTDPAALECAKEAAGEIRLDIEAAFSQGLPNTPMSHSHIRVLSGNFVTARPTGVVDGIDYKHTGQVRKIDVDALKFAIEQGSVVLLSPLGFSPTGDAFNLAMEDLATSVAVALRAEKLIFLSGEPGVLDGNGAVDTELARVDADALLARGELDEDTTYFLQHASLAVKRGVARAHLVPYALDGSVLLEIFTHDGVGTMVVEDTLDDLRAATLDDVGAILSLIEPLETDGTLVPRPRSAIERDVERFTVLEHDGVIYGCAALYPFPEDQMAEMACLIVHPEWQGSGEGEILLRHMESRARASGARRLFVLTTRTSHWFMKRGFVRGGVADLPRDKQNNYNRSRNSLVFIKKL	failed
MQDEYYMARALKLAQRGRFTTHPNPNVGCVIVKDGEIVGEGYHQRAGEPHAEVHALRMAGEKAKGATAYVTLEPCSHHGRTPPCCDALIAAGVARVVASMQDPNPQVAGRGLYRLQQAGIDVSHGLMMSEAEQLNKGFLKRMRTGFPYIQLKLGASLDGRTAMASGESQWITSPQARRDVQLLRAQSHAILTSSATVLADDPALTVRWSELDEQTQALYPQQNLRQPIRIVIDSQNRVTPVHRIVQQPGETWFARTQEDSREWPETVRTLLIPEHKGHLDLVVLMMQLGKQQINSIWVEAGPTLAGALLQAGLVDELIVYIAPKLLGSDARGLCTLPGLEKLADAPQFKFKEIRHVGPDVCLHLVGA	not failed
MQVLHVCSEMFPLLKTGGLADVIGALPAAQIADGVDARVLLPAFPDIRRGVTDAQVVSRRDTFAGHITLLFGHYNGVGIYLIDAPHLYDRPGSPYHDTNLFAYTDNVLRFALLGWVGAEMASGLDPFWRPDVVHAHDWHAGLAPAYLAARGRPAKSVFTVHNLAYQGMFYAHHMNDIQLPWSFFNIHGLEFNGQISFLKAGLYYADHITAVSPTYAREITEPQFAYGMEGLLQQRHREGRLSGVLNGVDEKIWSPETDLLLASRYTRDTLEDKAENKRQLQIAMGLKVDDKVPLFAVVSRLTSQKGLDLVLEALPGLLEQGGQLALLGAGDPVLQEGFLAAAAEYPGQVGVQIGYHEAFSHRIMGGADVILVPSRFEPCGLTQLYGLKYGTLPLVRRTGGLADTVSDCSLENLADGVASGFVFEDSNAWSLLRAIRRAFVLWSRPSLWRFVQRQAMAMDFSWQVAAKSYRELYYRLK	failed
MVCFASLFEEVSMHTCPLCHNQHTRHYFEDKHREYLQCEQCYLVFVNPDQRLDAETEKAHYDLHENNPEDIGYRRFLSRIADPITERISPQSNGIDFGCGPGPTLSLMLEEAGHNMALYDIYYHPDTAVLEKQYDFMTATEVIEHLYHPDVVWKQWLNLVKPGGWIGLMTKMVIDVEAFKSWHYKNDPTHVVFFSRDTFQFLAERDKLELEFIGNDVILLRKTQLEHHHHHH	not failed
MTNKGYFWVVASLVLASAAQVLMKSGMLALPSISMTHWPSLSTLMAGWPVVAVLVGIICYGLSMVCWFMVLRYLPLSRAYPLISLSYAVVYLAAVFLPWLNEPMSLRKNLGVLIILLGVWLVSRDAQATK	failed
MCARPCRPTNLPTRFSMSNSDPSPTLEGNYDLLFRFAFWLFVGAISFSVAGMLLLRLVPSSMAIFGPIYTKLVKTPTWTFMTLLALLPLLMYGPTLGWKKISLIAAWGCIIGGASELIGTTGWLNVGGIALPFGEYEYTQWLGPKIAGHVPYFIPPSWFAMSIVSLDLARRVTTQRVGSLLLGTLFMVLWDVSLDPAMNQAFPFWEYGVDGVFFGMPLSNWAGWAGVTFVILLGYEYIGKGAPIQNEWAPWVYALNCIFPLSICLLRDVYLPALIGGLATLVPFLLLWRYNPDSLKRSVSLFRG	failed
VRRIKLGSQGLEVSAQGLGCMGLSAFYGTPKPETEAIALIHHAIHSGVTFLDTSDIYGPETNELLLSKALKDGVREKVELATKYGIRYAEGKVEFKGDPAYVRAACEASLMRVDVACIDLYYQHRIDTRVPIEITIGELKKLVEEGKIKYIGLSEASASTIRRAHAVHPITALQIEWSLWSRDVEEDIIPTCRELGIGIVAYSPLGRGFFASGPKLVENLDNNDVRKTLPRFQQENLDHNKILFEKVSAMSEKKGCTPAQLALAWVHHQGDDVCPIPGTTKIENLNQNIGALSVKLTPEEMSELESLAQP	failed
MSVIKIEKALKLDKVIFVDVRTEGEYEEDHILNAINMPLFKNNEHNEVGTIYKMQGKHEAIQKGFDYVSYKLKDIYLQAAELALNYDNIVIYCARGGMRSGSIVNLLSSLGVNVYQLEGGYKAYRNFVLEY	not failed
MPSSSQYRRYQDPHHPSIPTPTTLFSQPSLEILGGGVAEELPELALCCDGTVVEGRSNCRCKARAVLPGGMRVRLSKTLAGILRHHPGRYGVRLTREGWARVSEVVEGLRKAGWSWVEEWHIVGVALHDPKGRYELRNGEIRARYGHSIPVNVEPLPGEPPPILYHGTTEEALPLIMERGIMRGRRLKVHLTSSLEDAVSTGRRHGNLVAVLLVDVECLRRRGLKVERMSKTVYTVDWVPPECIAEVRRESLGRSL	not failed
MGTPVVWEGNIGNPPEHKSFPNGNNEPRQLLRLNVMFDNSIPDGSGGYKDRGGFWANVEWWHPDAERFAQLFSKGMRVVVTGRAIMDTWKDKETGDDVWALKVEANRVAILPHRVNQVTMTQSNNTGQRQNAQQNNRPERQQNSAQQPGQHTDDLSHYGNGFDDDIPVLEHHHHHH	not failed
MSLTKVSSLGYPRLGENREWKKLIEAYWAGKVSKNDLFAGAKELRLDFLKKQLNAGLDLIPVGDFSLYDHILDLSVQFNIIPKRFAKEPIDIDLYFAIARGNKENVASSMKKWFNTNYHYIVPEWSKQRPKLNNNRLLDLYLEAREVVGDKAKPVITGPITYVALSTGVEDFTAAVKSLLPLYKQVFTELVKAGASYIQVDEPIFVTDEGKDYLQAAKAVYAYFAKEVPDAKFIFQTYFEGLIDSQVLSQLPVDAFGLDFVYGLEENLEAIKTGAFKGKEIFAGVIDGRNIWSSDFVKTSALLETIEEQSAALTIQPSCSLLHVPVTTKNETDLDPVLRNGLAFADEKLTEVKRLAEHLDGREDPAYDLHIAHFDALQAADFRNVKLEDLSRVATKRPSDFAKRRDIQQEKLHLPLLPTTTIGSFPQSREIRRTRLAWKRGDISDAEYKQFIQAEIERWIRIQEDLDLDVLVHGEFERVDMVEFFGQKLAGFTTTKFGWVQSYGSRAVKPPIIYGDVQHLEPITVEETVYAQSLTDRPVKGMLTGPITITNWSFERTDIPRDQLFNQIGLAIKDEIKLLENAGIAIIQVDEAALREGLPLRKSKQKAYLDDAVHAFHIATSSVKDETQIHTHMCYSKFDEIIDAIRALDADVISIETSRSHGDIIESFETAVYPLGIGLGVYDIHSPRVPTKEEVVANIERPLRQLSPTQFWVNPDCGLKTRQEPETIAALKVLVAATKEVRQKLGNEGHHHHHH	not failed
ARNAEAEGRLVRECRELLERHAFEELTVPDIAECLGVSVRTLQTALRAETGATPSELLRSIRLDRAREMLLEANPREQSVTAVAEQCGFTHQGRFSALYVKAFGELPSESLRR	failed
MKWKKSLAGLSSYKPGKREEEVMAELGLTKITKLSSNENPLGTSKKVAAIQANSSVETEIYPDGWASSLRKEVADFYQLEEEELIFTAGVDELIELLTRVLLDTTTNTVMATPTFVQYRQNALIEGAEVREIPLLQDGEHDLEGMLNAIDEKTTIVWICNPNNPTGNYIELADIQAFLDRVPSDVLVVLDEAYIEYVTPQPEKHEKLVRTYKNLIITRTFSKIYGLASARVGYGIADKEIIRQLNIVRPPFNTTSIGQKLAIEAIKDQAFIGECRTSNANGIKQYEAFAKRFEKVKLYPANGNFVLIDLGIEAGTIFSYLEKNGYITRSGAALGFPTAVRITIGKEEDNSAVIALLEKLL	not failed
MKCYLTGCIAGPLAFSEDLELIDYEPFPVDEIPGRLAESQMGGVSPEERIMLERLTPEYDEVVVEASPSPEYAGFRNLRFEVPSRAGIHLRENLEDILAEILDMPAGDFIHDALMSVARERLRESLRETDRFIIQSINALDELDEETGKLIERLREWYSLHFPELDGIKSHEQYVELIAEYGDRDQILKNFRMDVDESLGSDITSEDLHILRGLAESIRGLQRLREETERYIDIKMEKLAPNLRALAGSNVGARLIAHAGGLRELAMLPSSTIQVLGAEKALFRHLKSGAKPPKHGVIFQHPSIRSSPWWIRGKVARLLAGKIAIAVRKDVFSREFDPGIVESFNERFEAIKSNNPKPPARKKGFRKKRK	failed
MAADYTHFIHRQHAPPEVCLSAFSGHNDALDFPDSEGSPVSQSLIAALQNPALFPHPVEGFQVIETHISWVLLTGPFAYKVKKPVNFGFLDFTSLDAREHFCGEELRLNQRLTEDLYLEVLPITGSAEAPVLGGDGPAIEYVLKMRQFPQSQLLSTLQANSELTTAHIDEMARQIAHFHLNAPKVPAEHEAGTPESVMAPVRQNFEQIRPFLSDKADLQQLEALEAWAETSFERLKPLLAQRKSEGFIRECHGDIHLGNATLIDGKVVIFDCIEFNEPFRFTDVYADTGFLAMDLEDRGLKSLARRFISQYLELTGDYQGLELLNFYKAYRALVRAKVSLFSMPAEATPVQRATTLRQYRNYANLAESYSTIPSRFLAITSGISAVGKSRVAMRLVEALGAVRLRSDVERKRLFGEQQVPNDPHAGIYSSEASSATYARLHEIAETILRAGFPVVIDATYLKRAQRDAAAKVAEATGTPCLIIDCNAPEAVVASWLAQRQADQNDPSDATLEVIANQQATREALTDEELLRSKRIETNESGSLDALVANIRQRLPGLLEHHHHHH	failed
MPEYSSVTGLEGVKFAPLKKENGFYVATKIIDYPYAINAKVNTETSTEKQYADNKLVDMAVTTGSTKLELEMRDLPMEILEELFGIEETDGIYMFKKNVIAPWVAMSFYGPKANGKNRHVGLVKGRFSLPDDEWKTKEEKTDFQTVKLSAEFMEREQDNAYKVLADEDAPNFNLDKFYEKVFGNAYKNPLEHHHHHH	not failed
MGPDGPPCEISTWKHNSMKQIALSLFVIAASGAYVWDQAGKNPANDMLGEALPADAAEAPTVQPKEPASAAALPVLRTSPAPLDPRFRTRLPIARETTAGIAVPAERPNDPVKQTVVPVAPQPSPAPPAQPVTPAVTDPASSTPSFAVTPAIYIPVPQPRPAYPNAPVRVVRVGMKPAAHGYADGVYTGPTADAYYGIIQIQALVQGGQLTALKVLKYPSDRRTSVNINRQALPMLRDEAISAQSADVDIISGATLTSRAFIQSLRGALKKASSLEHHHHHH	failed
MAETAAGVGRFKTNYAVERKIEPFYKGGKAQLDQTGQHLFCVCGTRVNILEVASGAVLRSLEQEDQEDITAFDLSPDNEVLVTASRALLLAQWAWQEGSVTRLSKAIHTAPVATMAFDPTSTLLATGGCDGAVRVWDIVRHYGTHHFRGSPGVVHLVAFHPDPTRLLLFSSATDAAIRVWSLQDRSCLAVLTAHYSAVTSLAFSADGHTMLSSGRDKICIIWDLQSCQATRTVPVFESVEAAVLLPEEPVSQLGVKSPGLYFLTAGDQGTLRVWEAASGQCVYTQAQPPGPGQELTHCTLAHTAGVVLTATADHNLLLYEARSLRLQKQFAGYSEEVLDVRFLGPEDSHVVVASNSPCLKVFELQTSACQILHGHTDIVLALDVFRKGWLFASCAKDQSVRIWRMNKAGQVMCVAQGSGHTHSVGTVCCSRLKESFLVTGSQDCTVKLWPLPKALLSKNTAPDNGPILLQAQTTQRCHDKDINSVAIAPNDKLLATGSQDRTAKLWALPQCQLLGVFSGHRRGLWCVQFSPMDQVLATASADGTIKLWALQDFSCLKTFEGHDASVLKVAFVSRGTQLLSSGSDGLVKLWTIKNNECVRTLDAHEDKVWGLHCSRLDDHALTGASDSRVILWKDVTEAEQAEEQARQEEQVVRQQELDNLLHEKRYLRALGLAISLDRPHTVLTVIQAIRRDPEACEKLEATMLRLRRDQKEALLRFCVTWNTNSRHCHEAQAVLGVLLRREAPEELLAYEGVRAALEALLPYTERHFQRLSRTLQAAAFLDFLWHNMKLPVPAAAPTPWETHKGALP	failed
